Experimental data reported in PMC10403523.

Columns and labels:
[1] = tested on: yeast SWI/SNF complex, Snf2 delta-AT (Saccharomyces cerevisiae); assay: competition; settings: EMSA competition against 601 DNA; Kd EMSA: 6.7 nM DNA or nucleosome, 1.3-23 nM SWI/SNF, 4% native PAGE (79:1); Methods: prebinding 30 C, 15 min, gel in 0.5x …; binding buffer, salt and pH not
[2] = tested on: yeast SWI/SNF complex, Snf2 delta-AT (Saccharomyces cerevisiae); assay: EMSA; settings: apparent KD, Kd EMSA: 6.7 nM DNA or nucleosome, 1.3-23 nM SWI/SNF, 4% native PAGE (79:1), Methods: prebinding 30 C, 15 min, gel in 0.5x TBE, binding buffer, salt and pH not …

pUC19 plasmid
Ki [1]: 25 nM

29N59 nucleosome
Kd ([2]; 6.7 nM nucleosome, recombinant Xenopus laevis histone octamer): 20.5 nM

235 bp 601 DNA
Kd ([2]; 6.7 nM DNA): 12.8 nM
